Measured values from PMC4687643, “SH3 Domains Differentially Stimulate Distinct Dynamin I Assembly Modes and G Domain Activity” (PLoS ONE, 2015).

Key:
Assay in all cases: cell-based or functional assay
[1] = molecular target: T1, GST-amphiphysin I SH3 domain (human, UniProt P49418 622-695)
T1 sequence (looked up): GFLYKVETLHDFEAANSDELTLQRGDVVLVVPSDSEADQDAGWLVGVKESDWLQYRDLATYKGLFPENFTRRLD

[2] = molecular target: T2, GST-endophilin I SH3 domain (mouse, UniProt Q62420 290-349)
GST-cortactin SH3 domain [3] = molecular target: T3, GST-cortactin SH3 domain (mouse, UniProt Q60598 488-546)
[4] = molecular target: GST-intersectin I SH3C domain (Xenopus laevis)
[5] = molecular target: GST-intersectin I SH3E domain (Xenopus laevis)
[6] = molecular target: T4, GST-syndapin I SH3 domain (mouse, UniProt Q61644 382-441)
[7] = molecular target: T5, GST-amphiphysin II SH3 domain (human, UniProt O00499 520-593)
T5 sequence (looked up): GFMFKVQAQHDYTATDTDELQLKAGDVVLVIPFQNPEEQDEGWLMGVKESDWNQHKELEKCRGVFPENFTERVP

GST-p85 SH3 domain [8] = molecular target: T6, GST-p85 SH3 domain (bovine, UniProt P23727 3-79)
[9] = molecular target: T7, GST-Cdc42 interacting protein 4 (CIP4) SH3 domain (human, UniProt Q15642 540-601)
T7 sequence (looked up): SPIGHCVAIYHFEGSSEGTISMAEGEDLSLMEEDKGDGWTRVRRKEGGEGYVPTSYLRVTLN

[10] = molecular target: T8, GST-Formin Binding Protein 17 (FBP17) SH3 domain (human, UniProt Q96RU3 550-611)
T8 sequence (looked up): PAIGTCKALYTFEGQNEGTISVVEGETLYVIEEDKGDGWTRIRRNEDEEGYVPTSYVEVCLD

[11] = molecular target: T9, GST-Actin binding protein 1 (Abp1) SH3 domain (mouse, UniProt Q62418 377-436)
[12] = molecular target: GST-intersectin I SH3A domain (Xenopus laevis)
[13] = molecular target: T10, GST-sorting-nexin 9 (SNX9) SH3 domain (human, UniProt Q9Y5X1 1-62)
[14] = molecular target: T1, GST-amphiphysin I SH3 domain; remark: listed apart in the source
[15] = molecular target: T2, GST-endophilin I SH3 domain; remark: listed apart in the source
GST-cortactin SH3 domain [16] = molecular target: T3, GST-cortactin SH3 domain; remark: listed apart in the source
[17] = molecular target: GST-intersectin I SH3C domain (Xenopus laevis); remark: listed apart in the source
[18] = molecular target: GST-intersectin I SH3E domain (Xenopus laevis); remark: listed apart in the source
[19] = molecular target: T4, GST-syndapin I SH3 domain; remark: listed apart in the source
[20] = molecular target: T5, GST-amphiphysin II SH3 domain; remark: listed apart in the source
GST-p85 SH3 domain [21] = molecular target: T6, GST-p85 SH3 domain; remark: listed apart in the source
[22] = molecular target: T7, GST-Cdc42 interacting protein 4 (CIP4) …; remark: listed apart in the source
[23] = molecular target: T8, GST-Formin Binding Protein 17 (FBP17) …; remark: listed apart in the source
[24] = molecular target: T9, GST-Actin binding protein 1 (Abp1) SH3 …; remark: listed apart in the source
[25] = molecular target: GST-intersectin I SH3A domain (Xenopus laevis); remark: listed apart in the source
[26] = molecular target: T10, GST-sorting-nexin 9 (SNX9) SH3 domain; remark: listed apart in the source

T10 sequence (Q9Y5X1 1-62): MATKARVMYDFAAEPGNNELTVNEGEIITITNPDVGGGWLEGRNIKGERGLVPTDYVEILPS
T2 sequence (Q62420 290-349): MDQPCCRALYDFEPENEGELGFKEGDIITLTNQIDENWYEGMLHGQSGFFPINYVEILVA
T9 sequence (Q62418 377-436): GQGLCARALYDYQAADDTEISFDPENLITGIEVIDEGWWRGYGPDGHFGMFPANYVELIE
T4 sequence (Q61644 382-441): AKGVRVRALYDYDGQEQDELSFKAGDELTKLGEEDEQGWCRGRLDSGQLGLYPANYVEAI
T3 sequence (Q60598 488-546): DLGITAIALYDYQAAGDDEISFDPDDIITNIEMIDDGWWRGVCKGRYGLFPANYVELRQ

dynamin GTPase activity stimulated by the GST-SH3 domain (ELIPA, 30 mM NaCl), fold change relative to no SH3 [1]: 5.32 fold change
dynamin GTPase activity stimulated by the GST-SH3 domain (ELIPA, 30 mM NaCl), fold change relative to no SH3 [2]: 2.82 fold change
dynamin GTPase activity stimulated by the GST-SH3 domain (ELIPA, 30 mM NaCl), fold change relative to no SH3 (GST-cortactin SH3 domain [3]): 5.49 fold change
dynamin GTPase activity stimulated by the GST-SH3 domain (ELIPA, 30 mM NaCl), fold change relative to no SH3 [4]: 2.1 fold change
dynamin GTPase activity stimulated by the GST-SH3 domain (ELIPA, 30 mM NaCl), fold change relative to no SH3 [5]: 1.83 fold change
dynamin GTPase activity stimulated by the GST-SH3 domain (ELIPA, 30 mM NaCl), fold change relative to no SH3 [6]: 5.9 fold change
dynamin GTPase activity stimulated by the GST-SH3 domain (ELIPA, 30 mM NaCl), fold change relative to no SH3 [7]: 1.09 fold change
dynamin GTPase activity stimulated by the GST-SH3 domain (ELIPA, 30 mM NaCl), fold change relative to no SH3 (GST-p85 SH3 domain [8]): 2.24 fold change
dynamin GTPase activity stimulated by the GST-SH3 domain (ELIPA, 30 mM NaCl), fold change relative to no SH3 [9]: 0.83 fold change
dynamin GTPase activity stimulated by the GST-SH3 domain (ELIPA, 30 mM NaCl), fold change relative to no SH3 [10]: 3.97 fold change
dynamin GTPase activity stimulated by the GST-SH3 domain (ELIPA, 30 mM NaCl), fold change relative to no SH3 [11]: 1.03 fold change
dynamin GTPase activity stimulated by the GST-SH3 domain (ELIPA, 30 mM NaCl), fold change relative to no SH3 [12]: 14.7 fold change
dynamin GTPase activity stimulated by the GST-SH3 domain (ELIPA, 30 mM NaCl), fold change relative to no SH3 [13]: 5.12 fold change
rate of dynamin GTPase activity stimulated by the GST-SH3 domain (ELIPA, 30 mM NaCl, basal rate subtracted) [14]: 0.029 μmoles Pi/mg of dyn/min
rate of dynamin GTPase activity stimulated by the GST-SH3 domain (ELIPA, 30 mM NaCl, basal rate subtracted) [15]: 0.012 μmoles Pi/mg of dyn/min
rate of dynamin GTPase activity stimulated by the GST-SH3 domain (ELIPA, 30 mM NaCl, basal rate subtracted) (GST-cortactin SH3 domain [16]): 0.031 μmoles Pi/mg of dyn/min
rate of dynamin GTPase activity stimulated by the GST-SH3 domain (ELIPA, 30 mM NaCl, basal rate subtracted) [17]: 0.008 μmoles Pi/mg of dyn/min
rate of dynamin GTPase activity stimulated by the GST-SH3 domain (ELIPA, 30 mM NaCl, basal rate subtracted) [18]: 0.005 μmoles Pi/mg of dyn/min
rate of dynamin GTPase activity stimulated by the GST-SH3 domain (ELIPA, 30 mM NaCl, basal rate subtracted) [19]: 0.033 μmoles Pi/mg of dyn/min
rate of dynamin GTPase activity stimulated by the GST-SH3 domain (ELIPA, 30 mM NaCl, basal rate subtracted) [20]: 0.001 μmoles Pi/mg of dyn/min
rate of dynamin GTPase activity stimulated by the GST-SH3 domain (ELIPA, 30 mM NaCl, basal rate subtracted) (GST-p85 SH3 domain [21]): 0.009 μmoles Pi/mg of dyn/min
rate of dynamin GTPase activity stimulated by the GST-SH3 domain (ELIPA, 30 mM NaCl, basal rate subtracted) [22]: 0 μmoles Pi/mg of dyn/min
rate of dynamin GTPase activity stimulated by the GST-SH3 domain (ELIPA, 30 mM NaCl, basal rate subtracted) [23]: 0.016 μmoles Pi/mg of dyn/min
rate of dynamin GTPase activity stimulated by the GST-SH3 domain (ELIPA, 30 mM NaCl, basal rate subtracted) [24]: 0 μmoles Pi/mg of dyn/min
rate of dynamin GTPase activity stimulated by the GST-SH3 domain (ELIPA, 30 mM NaCl, basal rate subtracted) [25]: 0.101 μmoles Pi/mg of dyn/min
rate of dynamin GTPase activity stimulated by the GST-SH3 domain (ELIPA, 30 mM NaCl, basal rate subtracted) [26]: 0.027 μmoles Pi/mg of dyn/min
B1: endogenous sheep brain dynamin I (enzyme)
chain: MGNRGMEDLIPLVNRLQDAFSAIGQNADLDLPQIAVVGGQSAGKSSVLENFVGRDFLPRGSGIVTRRPLVLQLVNATTEYAEFLHCKGKKFTDFEEVRLEIEAETDRVTGTNKGISPVPINLRVYSPHVLNLTLVDLPGMTKVPVGDQPPDIEFQIRDMLMQFVTKENCLILAVSPANSDLANSDALKVAKEVDPQGQRTIGVITKLDLMDEGTDARDVLENKLLPLRRGYIGVVNRSQKDIDGKKDITAALAAERKFFLSHPSYRHLADRMGTPYLQKVLNQQLTNHIRDTLPGLRNKLQSQLLSIEKEVEEYKNFRPDDPARKTKALLQMVQQFAVDFEKRIEGSGDQIDTYELSGGARINRIFHERFPFELVKMEFDEKELRREISYAIKNIHGIRTGLFTPDLAFEATVKKQVQKLKEPSIKCVDMVVSELTATIRKCSEKLQQYPRLREEMERIVTTHIREREGRTKEQVMLLIDIELAYMNTNHEDFIGFANAQQRSNQMNKKKASGNQDEILVIRKGWLTINNIGIMKGGSKEYWFVLTAENLSWYKDDEEKEKKYMLSVDNLKLRDVEKGFMSSKHIFALFNTEQRNVYKDYRQLELACETQEEVDSWKASFLRAGVYPERVGDKEKASETEENGSDSFMHSMDPQLERQVETIRNLVDSYMAIVNKTVRDLMPKTIMHLMINNTKEFIFSELLANLYSCGDQNTLMEESAEQAQRRDEMLRMYHALKEALSIIGDINTTTVSTPMPPPVDDSWLQVQSVPTGRRSPTSSPTPQRRAPAVPPARPGSRGPAPGPPPAGSALGGAPPVPSRPGASPDPFGPPPQVPSRPNRAPPGVPSRSGQASPSRPESPRPPFDL
